Data on one substance can be found in patent US20070093415A1.

The target of assay [1] is Aβ1-40 amyloid (amyloid form of the Aβ1-40 peptide). As to the kind of experiment: ELISA on immobilized Aβ1-40 amyloid, anti-Thio detection.
Assay [2] shares this target. Described as above. This is another data set of the same source.

Where two headings read alike, the source gives them in different places.

Thio (recombinant thioredoxin without the Aβ-peptide binding sequence), sequence (P0AA25 2-109): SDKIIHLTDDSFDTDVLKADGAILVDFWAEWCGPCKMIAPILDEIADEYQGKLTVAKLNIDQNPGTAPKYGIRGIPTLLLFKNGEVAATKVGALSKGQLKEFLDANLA

As to “Thio (recombinant thioredoxin without the Aβ-peptide binding sequence) (from UniProt P0AA25 2-109)”, the concentration below which no binding was seen in assay [1] is more than 100 µM; in assay [2], more than 200 µM.
